Legend:
[1] = molecular target: human melanocortin-4 receptor (human) (UniProt P32245)
[2] = molecular target: human melanocortin-5 receptor (human) (UniProt P33032)
[3] = molecular target: human melanocortin-3 receptor (human) (UniProt P41968)
[4] = molecular target: human melanocortin-1 receptor (human) (UniProt Q01726)
UniProt Q01726, sequence (Q01726 whole entry): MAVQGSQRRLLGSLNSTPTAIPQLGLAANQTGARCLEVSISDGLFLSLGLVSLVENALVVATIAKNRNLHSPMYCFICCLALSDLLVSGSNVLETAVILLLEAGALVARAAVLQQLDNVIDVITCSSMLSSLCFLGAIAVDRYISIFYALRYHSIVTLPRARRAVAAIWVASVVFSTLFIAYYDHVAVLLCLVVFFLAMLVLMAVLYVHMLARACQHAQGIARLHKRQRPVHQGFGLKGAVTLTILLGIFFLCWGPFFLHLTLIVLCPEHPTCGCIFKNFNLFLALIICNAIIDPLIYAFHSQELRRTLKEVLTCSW

UniProt P32245, sequence (P32245 whole entry): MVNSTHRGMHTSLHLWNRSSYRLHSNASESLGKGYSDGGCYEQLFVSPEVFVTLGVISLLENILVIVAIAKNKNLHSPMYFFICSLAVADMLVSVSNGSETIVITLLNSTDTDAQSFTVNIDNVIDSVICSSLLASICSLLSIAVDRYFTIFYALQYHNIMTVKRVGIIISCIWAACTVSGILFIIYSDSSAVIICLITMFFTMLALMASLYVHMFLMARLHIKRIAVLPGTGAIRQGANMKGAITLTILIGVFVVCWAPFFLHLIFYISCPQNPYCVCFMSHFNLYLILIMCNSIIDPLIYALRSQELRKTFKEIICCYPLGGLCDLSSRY
UniProt P33032, sequence (P33032 whole entry): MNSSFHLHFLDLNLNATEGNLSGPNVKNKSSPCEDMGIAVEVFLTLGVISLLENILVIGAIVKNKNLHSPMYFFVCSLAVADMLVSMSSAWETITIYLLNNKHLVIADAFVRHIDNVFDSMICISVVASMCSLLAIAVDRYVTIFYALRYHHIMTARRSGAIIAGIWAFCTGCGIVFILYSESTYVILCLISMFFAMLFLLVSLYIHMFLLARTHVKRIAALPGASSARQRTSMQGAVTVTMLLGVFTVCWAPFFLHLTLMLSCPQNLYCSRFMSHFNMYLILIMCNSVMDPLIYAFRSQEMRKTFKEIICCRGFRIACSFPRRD
UniProt P41968, sequence (P41968 whole entry): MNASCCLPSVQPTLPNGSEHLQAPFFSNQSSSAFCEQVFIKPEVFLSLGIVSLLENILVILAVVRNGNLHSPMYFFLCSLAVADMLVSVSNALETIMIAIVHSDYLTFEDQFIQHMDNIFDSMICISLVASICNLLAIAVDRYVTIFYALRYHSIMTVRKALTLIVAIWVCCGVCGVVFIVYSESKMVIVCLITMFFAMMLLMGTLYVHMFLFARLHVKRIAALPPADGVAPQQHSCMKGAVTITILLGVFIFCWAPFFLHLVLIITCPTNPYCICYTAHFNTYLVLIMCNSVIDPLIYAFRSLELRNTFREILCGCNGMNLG

EC90 of the cAMP response (split-luciferase cAMP sensor) [1]: 70 nM
EC90 of the cAMP response (split-luciferase cAMP sensor) [2]: 500 nM
EC90 of the cAMP response (split-luciferase cAMP sensor) [3]: 30 nM
EC90 of the cAMP response (split-luciferase cAMP sensor) [4]: 10 nM
Substance: α-melanocyte-stimulating hormone (ligand)

Reference: doi:10.1101/2022.01.03.474807
